Data set [1] addresses T1, pitrilysin (Homo sapiens, UniProt Q5JRX3).
T1 construct: made in house; host or cells: Sf9 cells
T1 sequence (Q5JRX3 29-1037): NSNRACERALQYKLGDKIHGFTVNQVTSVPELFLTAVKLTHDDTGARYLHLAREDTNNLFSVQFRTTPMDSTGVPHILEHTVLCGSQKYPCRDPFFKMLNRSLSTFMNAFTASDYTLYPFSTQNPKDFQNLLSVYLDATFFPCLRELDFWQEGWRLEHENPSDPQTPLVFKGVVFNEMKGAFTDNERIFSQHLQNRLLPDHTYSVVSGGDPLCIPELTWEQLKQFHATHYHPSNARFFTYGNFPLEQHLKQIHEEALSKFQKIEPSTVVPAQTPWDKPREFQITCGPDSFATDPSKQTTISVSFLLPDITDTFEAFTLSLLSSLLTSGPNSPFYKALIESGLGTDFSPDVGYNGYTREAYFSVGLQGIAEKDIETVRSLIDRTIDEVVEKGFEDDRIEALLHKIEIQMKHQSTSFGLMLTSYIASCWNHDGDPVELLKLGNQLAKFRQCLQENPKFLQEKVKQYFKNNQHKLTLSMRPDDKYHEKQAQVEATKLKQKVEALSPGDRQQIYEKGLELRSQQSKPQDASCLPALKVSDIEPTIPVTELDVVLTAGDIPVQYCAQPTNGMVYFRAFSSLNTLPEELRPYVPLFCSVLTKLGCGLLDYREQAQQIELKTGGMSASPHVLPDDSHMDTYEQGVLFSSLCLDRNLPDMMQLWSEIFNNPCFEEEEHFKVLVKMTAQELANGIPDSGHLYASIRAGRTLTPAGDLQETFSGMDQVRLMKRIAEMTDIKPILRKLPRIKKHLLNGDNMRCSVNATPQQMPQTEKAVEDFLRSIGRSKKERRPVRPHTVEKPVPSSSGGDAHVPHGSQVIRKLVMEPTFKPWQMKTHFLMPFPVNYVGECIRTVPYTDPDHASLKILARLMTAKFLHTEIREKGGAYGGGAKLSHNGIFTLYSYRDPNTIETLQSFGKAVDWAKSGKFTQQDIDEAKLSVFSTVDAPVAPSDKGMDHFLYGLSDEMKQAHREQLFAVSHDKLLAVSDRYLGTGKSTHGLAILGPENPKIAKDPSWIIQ
The following applies: ref [23], cited from earlier work. The procedure: (§1) Table 1 Comparison of enzymatic characters of pitrilysin and IDE towards different substrates. | column: kcat (min^-1); KM (μM); kcat/KM (min^-1μM^-1) || Having established IAPP as a substrate of pitrilysin, the kinetic properties of the reaction were determined. The rate of hIAPP hydrolysis was determined by measuring the disappearance of the substrate by HPLC, while k cat was determined based on the linear initial rate of hIAPP hydrolysis at a saturating hIAPP concentration (20 μM) using a molecular mass of 117 kDa for pitrilysin. The KM for hIAPP was determined by using it as an alternate substrate inhibitor of the hydrolysis of the fluorogenic peptide Abz-GGYRRGQ-EDDnp. The kcat and KM values of pitrilysin with hIAPP are 13.5 ± 0.1 m ...

Data set [2] concerns Insulin-degrading enzyme (IDE). Particulars: cited from earlier work. The procedure: Table 1 Comparison of enzymatic characters of pitrilysin and IDE towards different substrates. | column: kcat (min^-1); KM (μM); kcat/KM (min^-1μM^-1)
A further data set deals with recombinant pitrilysin. The experiment in a line: 40 nM pitrilysin in 50 mM Tris/HCl buffer (pH 7.4) containing 200 mM NaCl. The following applies: human, 37°C, up to 60'.
The subject of data set [3] is pitrilysin. Kind of data set: pitrilysin (400 nM) added to hIAPP oligomers generated with rat cardiac myocytes or from HIP rat cardiac myocytes. The following applies: human, 37°C, up to 1hr.
Data set [4] relates to pitrilysin. The experiment in a line: 40 nM pitrilysin added to hIAPP preincubated at 37°C to induce oligomer formation. Particulars: human, up to 1hr.
The subject of data set [5] is Insulin-degrading enzyme (IDE). Kind of data set: Cleavage of peptide substrates by insulin-degrading enzyme (IDE), determined as for pitrilysin. The following applies: mean ± SEM. The format is biochemical. The procedure:
as §1, with “Having” for “Table 1 Comparison of enzymatic characters of pitrilysin and IDE towards different substrates. | column: kcat (min^-1); KM (μM); kcat/KM (min^-1μM^-1) || Having”, “min^-1 and 0.38 ± 0.01 μM, respectively (Table 1).” for “m ...”
We therefore compared the enzymatic properties of these two enzymes in terms of hIAPP degradation. The kcat and KM values for IDE with hIAPP were determined as above yielding values of 294 ± 0.4 min^-1 and 3.11 ± 0.20 μM, respectively. […] (Table 1). Thus relative to IDE, pitrilysin is a more specific IAPP degrading enzyme.

For data set [6], the target named is T1, pitrilysin. Kind of data set: Cleavage of peptide substrates by recombinant pitrilysin (HPLC substrate disappearance; KM as alternate substrate inhibitor of a fluorogenic peptide). The format is biochemical. The following applies: for Degradation of monomeric IAPP by pitrilysin: monomeric peptide 20 μM, HPLC. The protocol: Pitrilysin was produced in Sf9 cells (ATCC, Manassas, VA, USA) and purified as described.. The purity of recombinant pitrilysin is greater than 97% as judged from Coomassie blue stained SDS-PAGE gels using NIH ImageJ software (S1 Fig).
Monomeric hIAPP (20 μM) was incubated with 40 nM pitrilysin in 50 mM Tris/HCl buffer (pH 7.4) containing 200 mM NaCl at 37°C for various times and analyzed by reverse phase HPLC [22, 23]. hIAPP and its cleavage products were collected manually and identified by mass spectrometry.
as §1, with “Having” for “Table 1 Comparison of enzymatic characters of pitrilysin and IDE towards different substrates. | column: kcat (min^-1); KM (μM); kcat/KM (min^-1μM^-1) || Having”, “min^-1 and 0.38 ± 0.01 μM, respectively (Table 1).” for “m ...”

In data set [7] the target is T1, pitrilysin. Kind of data set: In vitro cleavage of oligomeric hIAPP by pitrilysin (SDS-PAGE, Western blot). The format is biochemical. The following applies: hIAPP oligomers (12, 28, 36, 40 kDa and large oligomers), 40 or 400 nM pitrilysin, 37°C, 1 hr. The procedure:
hIAPP was incubated at 37°C for 1 hr. with gentle shaking to induce hIAPP oligomerization. To produce low molecular weight oligomers, hIAPP oligomerization was initiated in saline solution at 37°C using 50 μM recombinant hIAPP and then incubated with myocytes for 2 hours at room temperature. Similarly cardiac myocytes from hIAPP expressing rats (HIP rats) contain amylin oligomers and thus both were used. Pitrilysin was added to oligomers and incubated for 1 hour at 37°C. The reaction was then subjected to SDS-PAGE and Western blotting with A11 antisera for large oligomer or with mouse anti-hIAPP for detection of monomers and small oligomers. Adult cardiac myocytes were isolated from wild-type Sprague-Dawley rats and from HIP rats as described.
Oligomers of hIAPP were generated from hIAPP incubated with rat cardiac myocytes and then incubated with pitrilysin (400 nM) at 37°C for 1 hr. Reactions were analyzed by Western blot analysis using mouse monoclonal anti-human amylin antibody E-5. b. […] Reactions were analyzed by Western blots using rabbit anti-IAPP that recognizes monomeric IAPP or rabbit anti-oligomer antibody A11. rIAPP (20 μM) was treated at the same condition as a negative control.

The mark [8] stands for this setting: 20 μM hIAPP, 40 nM pitrilysin, 37°C, HPLC peaks identified by mass spectrometry.
Setting [9] is: 40 nM pitrilysin, 50 mM Tris/HCl pH 7.4, 200 mM NaCl, 37°C.

“Also recorded” adds a separate entry of the source. Like-named read-outs stand apart in the source and are kept apart here. Where no end group is shown, it is not given here.

As for Insulin, in the data set with pitrilysin [1], the Km was 54.5 ± 5.5 µM, the kcat is 0.2 ± 0.0 min⁻¹ and the kcat/KM is recorded as 0.0037 min^-1μM^-1. Besides, in data set [2] (ref [44]), the Km was 130 ± 20 nM, the kcat is 0.56 ± 0.01 min⁻¹ and the kcat/KM was 4.3 min^-1μM^-1.
Turning to “KCNTATCATQRLANFLVHSSNNFGAILSSTNVGSNTY-NH2”, the cleaved bond entry in the data set on recombinant pitrilysin is on record as “Phe15-Leu16, first_seen; also recorded: Gly24-Ala25, major; also recorded: Ala25-Ile26, major; also recorded: Arg11-Leu12, minor; also recorded: Leu12-Ala13, minor; also recorded: Ala13-Asn14, minor; also recorded: Asn14-Phe15, minor”. For the same substance, the not cleaved entry in the data set on pitrilysin [3] is “inability of pitrilysin to reduce the amount of hIAPP oligomers of 12 kDa, 28 kDa, 36 kDa, or 40 kDa (1 hr)”; in the data set on pitrilysin [4], “not able to degrade large hIAPP oligomers (1hr)”.
Take amyloid β peptide 1–40 [Aβ 40]: the results for the kcat/KM (in the data set with pitrilysin [1] (listed as Aβ1–40); in data set [2] (ref [43])) were 1.94 min^-1μM^-1 and 250 min^-1μM^-1, respectively. The Km in the data set with pitrilysin [1] was 1.7 ± 0.1 µM; in data set [2] (ref [43]), 870 ± 100 nM. For the same substance, the kcat with pitrilysin [1] was 3.3 ± 0.1 min⁻¹; in data set [2] (ref [43]), 221 ± 11 min⁻¹.
Turning to “islet amyloid polypeptide (KCNTATCATQRLANFLVHSSNNFGAILSSTNVGSNTY; not fully specified (C-terminus); cysteine pairing not given here) [hIAPP, Human islet amyloid polypeptide (IAPP, amylin), from Anaspec; substrate of pitrilysin and IDE]”, the kcat worked out at 294 ± 0.4 min⁻¹ in data set [5] (determined as for pitrilysin (HPLC, saturating hIAPP)) and 13.5 ± 0.1 min⁻¹ in the data set with pitrilysin [6] (pitrilysin, linear initial rate of hIAPP hydrolysis at saturating 20 μM, substrate disappearance by HPLC, 50 mM Tris/HCl pH 7.4, 200 mM NaCl, 37°C, molecular mass 117 kDa, mean ± SEM). Moreover, the Km in data set [5] (determined as for pitrilysin (alternate substrate inhibitor)) turned out to be 3.11 ± 0.2 µM; in the data set with pitrilysin [6] (pitrilysin, hIAPP as alternate substrate inhibitor of hydrolysis of fluorogenic peptide Abz-GGYRRGQ-EDDnp, mean ± SEM), 380 ± 10 nM. The “Initial cleavage sites on hIAPP by pitrilysin” value with pitrilysin [6] (setting [8]) was “Phe^15-Leu^16, Gly^24-Ala^25 and Ala^25-Ile^26”. Moreover, the “Secondary (subsequent) cleavage sites on hIAPP by pitrilysin” value with pitrilysin [6] (setting [8]) was “Arg^11-Leu^12, Leu^12-Ala^13, Ala^13-Asn^14 and Asn^14-Phe^15”. Also, the “Degradation of monomeric IAPP by pitrilysin” value in the data set with pitrilysin [6] (setting [9]) is given as “hIAPP degradation is indeed catalyzed by pitrilysin”. The “Degradation of oligomeric hIAPP by pitrilysin” value with pitrilysin [7] is on record as “not able to degrade; also recorded: does not degrade”.
With “rIAPP: rodent (rat) islet amyloid polypeptide, does not form oligomers”, the “Degradation of monomeric IAPP by pitrilysin” value with pitrilysin [6] (setting [9]) is “degrades monomeric rat IAPP”.

(Values after publication PMC4507941 (PLoS ONE, 2015).)
